Measurements taken from the DeepSol protein solubility set.

Experiment: soluble on expression in E. coli; label from the status in PepcDB or PDB records

Row | Sequence | soluble on expression in E. coli
1 | AHHHHHHGSYLEEKDGIKFYSLNKLEKEGFDVHSLPYSLRILAENILRHLNNGVVSYEHIENIFERKGDIPFYPARIIMQDYTGVPAIVDLAAMRDYIKEKGKDPSRVNPKIPVELVVDHSLIVLYHGTKYSLYENMKEELKANRERYSLLKWASKAFENLKIIPPGKGIIHQINVEHLARIVFLEEGIAYPDTVLGTDSHTPMVNGIGVLGWGVGGIEAEAALLGLPYFMKVPEVVGVVLEGEPSPEITPTDIVLTITEKLRKVGVVGKFLEYTGNVEALSAFDRTVIANMTPENGATVGYFPIDEETIKFIRLTRGESKAKLVEKYAKLNMLYREETPEFDKTVKIDLSKVEPSVAGPFHPEDRIRLKDLKNSFKVEKKTKIRINGGEVEIEDGIIGLAAIASCTNTSNPYNILAAALVAKKAVELGLRTKPWVKTTFTPGSRVVVKYLEKLGLLSYLEALGFHVNGYACASCIGNSGPLKREVEEVIDKGIKVAAVISGNRNFRRRVNSKIDYTYLASPPLVVVFAIAGKITIDPSEPLAYDPNGKPVYLTDILPTKEEVKKLEEVIGEELYKEAYSSLFEDSIWKDIETEESPLFKWDEKSTYVRKPPFFDLTPITDDIKGARALIVLGDRISTDDISPAGKIDPESPAGRYLLSLGVKPEELHTYGARRGNHEVMMRGTFARFKMIYWPTGEEMSVYEAAMRYKERGIPLIIIAGKQYGVGSSRDWAAKGPALLGVKAVIAESFERIHRSNLVGMGIVPLQFKDPEVRKRLTGEEVYDIIGLKDLYPGKTIKVIARKPNGEVIEFETIARVETPIEVEYIRHGGILKYALELLG | not soluble
2 | AIAAQEENKRLVVVVPNEMTVPSRRAFTSEDEAWKSYLENPLTAATKAMMSINGDEDSVAALGILYDYYKVPKEKRLLPVHKLPEDHEKSRISQDGLESAENRIHVLKSLPVNLSLNPDSENKQDLFGTVPAEDGVVATVKPEVYAQSFSSHHQQLHYHRTPYHPHLQDSVSVSHDRYMKDDQCSTPDSTFEDSYPEDPMRYRVPTTPAAEDFTHEQAGLNMFQYNIEASRSVREKAADGPMVYLNKGQFYGITLSETGANKGLRHPISKVRTVVMVVFGQEKCRDEQLKHWNYWHTRQHTAKQRVLDIADYKESFNTIGNIEEIAYNAVSFTWDPAAVHKSFCASVILL | soluble
3 | AIACHTQVGGSMQVPEPRRPFTCSSENNVTNSFFEEAYSASFRSKLYNMVEEIEQERAKYCNSANLSYMDAFGVEKESIEEDYNKEEDRDSLCSVDIADNSETSNRSSEDLLCDNCSKSLMFLNNVFKWNDLLFCNLDCYTSAILKNQKGADVKHRVACSLSPTWHKDCVHSVQD | soluble
4 | AIADTGELHDLTVKGAVVTQLERCEVACQRLFQNLALLGLELQNSESITEGVCDSKAASDLGSSVELLENEERALRLCVDRFVLELRQVENLAKTLDGIREEEERILSLEQRSIEQAERCFYLWNDAREMLRGTRLTSIKEVLESAARYPRIPSWTPLPTSN | soluble
5 | AIADYSNTYGAYGGGGFLPESPARTGGNASTRFGVGSGSSLRDQRRSLLPVRVADLVHAVHDPVTNTFVLRDENEHQSITISEGSIVKVVAYVEELREQPLDLLWLLDDRSGEMIWARMASTSSSSLAALEQSGILVRVFGQLLEVDGRRVLNVRAIRKADGEVELRYHENLCQLSKLQLIRGYPTAGNALAGASSSPASPKAGPSKAVHRSSLGSGAPKEMAQQAPGLEIPAAFPPEHFKVLKCIREETARNRDAMLTDIAQRIALSTTKVRGICDALQNEGHIYCTLDDDTFRASSS | soluble
6 | AIAEAKTLGIATPRKPVLSVSARKLKDNAADWHNLILKWDSLSDKGFTTASSIANLKVSLLSKEKVELESSSPASMEEEEKTNLDYDKGLEALCEELQAILDGLTKIQMKMEKLSSTTKGICELENYHYREESSRPPLFHTWPTAFFYEVSRRLSEAYKKELLLKHTIGAELAHTADRNLSLTYLSMWLHQPYIESNSKLQLESMLLETGHRAL | soluble
7 | AIAEEDEFIGEKTFQRYCAEFIKHSQQIGDSWEWRPSKDCSDGYMCKIHFQIKNGSVMSHLGASTHGQTCLPMEEAFELPLDDCEVIETAAASEVIKYEYHVLYSCSYQVPVLYFRASFLDGRPLTLKDIWEGVHECYKMRLLQGPWDTITQQEHPILGQPFFVLHPCKTNEFMTPVLKNSQKINKNVNYITSWLSIVGPVVGLNLPLSYAKATSQDERNVP | soluble
8 | AIAFQPVTQKRLTNVSVVRMRKGGKRFEIACYPNMVMAYREGHVRDLDEVIQVEDVFENVSKGKLAANADLERCFGTRDRHAVLLQILLHGDLQVSDRERQYQSTRKLHEIASVVAAKTISRETKKPLPVGLIEKALREIHFAVQPNRPAKAQALEVIPLLRAQSGLDLERARLRLRIHVPSQRDAKAVKARLEPLQQGETDGTHSSSRSDSVRMKDGSAAVESESEEWLPGGALLWTVQADPGAFREIEEIVQRETNQQGIVEVASLRVLDDEDESILS | soluble
9 | AIAGCLFSVPEGGYLEVNEERSAGAYDSLSTASGIDDLHDERQPKAAYSMEDSSADLVAEDGAAVHQEVLNAHDDAWCRFDATSDATNEGAAAGGIGAPPSPLDLSLDSVVQQAYQDRVLVVFSGKAFGIALQLQMHWAALGASSAAPECVMDACVPESLLRAVHACLRAHMHACERIANRWNPDSELSAACSSAHPKKAVEVGTILYALLAEAHRLHRVTGGRFDPTCGALWRGFRATLRSSALQRPPQGRAFST | soluble
10 | AIAHGVEFAPLERQHGSQVLALLRGTLLVPLPRLHQRLEEAYERDARLGLAQVALCRLAGNAEKVVGVLLARVATRRTCCAQVYIDAVAVDAVFQGQGIGSRLLLRVLTPCLPDGLEVREVFLHTPLQATELVAFYRSCGFESDDEVIDNYYPRRWMPQAQALVLRWRPPTAAQHQHEERKGPQDADVS | soluble
11 | AIAPSDLAKKKAAKKKEAAKARGRTRKPEDGVNGDAEKPEIQENGAAEVNGVDSLAKELDEFELKKTEARAVTGVLASHPNSTDVHISSLSLTFHGQELLSDTSLELNSGRRYGLIGLNGTGKSMLLSAISHREVPIPEHIDIYHLTREMAPSEKTALQCVMEVDEERIKLEKEAERLAHEDSECEKLMELYERLEELDADKASMRASRILHGLGFTTSMQQKKLKDFSGGWRMRVALARALFLKPFMLLLDEPTNHLDLDACVWLEEELSQFKRILVLISHSQDFLNGVCTNIIHLHQRKLKYYTGNYDQYVKTREELEENQMKRFNWEQDQIAHMKNYIARFGHGSAKLARQAQSKEKTLQKMVASGLTERVVNDKTLSFYFPPCGKIPPPVIMVQNVSFRYSENTPYIYKNLEFGIDLDTRVALVGPNGAGKSTLLKLLTGELLPSDGMIRKHSHVKIGRYHQHLTEQLELDLSPLEYMMKCYPEIKEKEEMKKIIGRYGLTGKQQVSPIRNLSDGQKCRVCFAWLAWQNPHMLFLDEPTNHLDIETIDALAEAINDFEGGMMLVSHDFRLIQQVAQEIWVCEKQTITKWSRDILAYKEHLKSKIDKQMHDL | soluble
12 | AIAQNDAGEFVDLYVPRKCSASNRIIGAKDHASIQMNVAEVSWEPGRREGCDICAGKAGCPIVEEPLG | soluble
13 | AIARTDSSKMTDVESGVANFASSARAGRRNALPDIQSSAATDGTSDLPLKLEALSVKEDAKEKDEKTTQDQLEKPQNEEK | soluble
14 | AIASETISRVRQLTEKGAKMEGWDDCWKAGLTPWDRGSSLPVLCELCKEDALPKGYALVPGCGRGYDVLTLASESRVAIGLDCSEEAKKQAEQVRKFSVVDNCQLKEIEAEGF | soluble
15 | AIAVSRLEHPAGGYKKVFESCEELAEPIPAHVSGKIPAWLSGSLLRMGPGLFEIGDEPFNHLFDGQALIHKFDLKDGRVTYHRKFIRTDAYVRAMTEKRVVITELGTAAYPDPCKNIFSRFFTYFQGTEVTDNCSVNIYPIGEDFYACTETNFITKVNPDTLETIKKVDLCNYLSVNGLTAHPHIEADGTVYNIGNCFGKNMSLAYNIVKIPPLQEEKSDPLAMSKVLVQFPSSERFKPSYVHSFGMTENHFVFVETPVKINLLKFLTSWSIRGSNYMDCFESNDRMGTWFHLAAKNPGKYINNPSQ | soluble
16 | AIGEFMVSLPRMVYPQPKVLTPCRKDVLVVTPWLAPIVWEGTFNIDILNEQFRLQNTTIGLTVFAIKKYVAFLKLFLETAEKHFMVGHRVHYYVFTDQPAAVPRVTLGTGRQLSVLEVRAYKRWQDVSMRRMEMISDFCERRFLSEVDYLVCVDVDMEFRDHVGVEILTPLFGTLHPGFYGSSREAFTYERRPQSQAYIPKDEGDFYYLGGFFGGSVQEVQRLTRACHQAMMVDQANGIEAVWHDESHLNKYLLRHKPTKVLSPEYLWDQQLLGWPAVLRKLRFTAVPKNHQAVRNP | soluble
17 | AKWPHLKVGGAILVAPAEPRHSDRTESFGPIFEESLGVPAYVVSSRNDPWMSFTQAERLARAWRADVVDLGFAGHINVDSGFGPWPGGVVLRDELARRPVP | not soluble
18 | ALENLQVEASCSVCLEYLKEPVIIECGHNFCKACITRWWEDLERDFPCPVC | soluble
19 | ALSGECADEIFGGYPWFMRKEMIYANTFPWSRFVNERISLLSDDLKSINLQEYVDARYKENLNNVPVSDEDSPYAKRMRELFYLNIKWFMITLLTRKDRMSMANSLEVRVPFADYRLVEYAFNIPPEIKFLNGREKGILRKAFEGVLPQDVIERKKSPYPKTFDPRYTALVQKWLKKVVEDKTSPILDIIDLKTVNELIETGGSSYKTPWFGQLMKGPQLIAYLLQVNFWLKEY | not soluble
20 | ALTVRKHYTKEQARVTVVNKYPTHQIITELHRLAAGNVSEKAVAMPLEKLFKGKDIDLKIAEVSSFSVDKKEVALADGSTLTYDALVVGLGSVTAYFGIPGLEENSMVLKSAADANKVFQHVEDRVREYSKTKNEADATILIGGGGLTGVELVGELADIMPNLAKKYGVDHKEIKLKLVEAGPKILPVLPDDLIERATASLEKRGVEFLTGLPVTNVEGNVIDLKDGSKVVANTFVWTGGVQGNPLVGESGLEVNRGRATVNDFLQSTSHEDVFVAGDSAVYFGPDGRPYPPTAQIAWQMGELIGYNLFAYLEGKTLETFKPVNSGTLASLGRKDAVAIIGANSTPLKGLPASLMKEASNVRYLTHIK | not soluble
21 | AMSKIICLTAGHSNTDPGAVNGSDREADLAQDMRNIVASILRNDYGLTVKTDGTGKGNMPLRDAVKLIRGSDVAIEFHTNAAANKTATGIEALSTPKNKRWCQVLGKAVAKKTGWKLRGEDGFKPDNAGQHSRLAYAQAGGIVFEPFFISNDTDLALFKTTKWGICRAIADAIAMELGAAKV | soluble
22 | ANKLDSKKLTRSNGTTLEYSQITDADNATKAVETLKNSIKLEGSLVVGKTTVEIKEGTVTLKREIEKDGKVKVFLNDTAGSNKKTGKWEDSTSTLTISADSKKTKDLVFLTDGTITVQQYNTAGTSLEGSASEIKNLSELKNALK | soluble
23 | APAAVDWRARGAVTAVKDQGQCGSCWAFSAIGNVECQWFLAGHPLTNLSEQMLVSCDKTDSGCSGGLMNNAFEWIVQENNGAVYTEDSYPYASGEGISPPCTTSGHTVGATITGHVELPQDEAQIAAWLAVNGPVAVAVDASSWMTYTGGVMTSCVSEALDHGVLLVGYNDSAAVPYWIIKNSWTTQWGEEGYIRIAKGSNQCLVKEEASSAVVG | soluble
24 | AQHPPYCRNQPGKCQIPLQSLFDRATTVANYNSKLAGEMVNRFDEQYGQGINSESKVINCHTSSITTPNSKAEAINTEDKILFKLVISLLHSWDEPLHHAVTELANSKGTSPALLTKAQEIKEKAKVLVDGVEVIQKRIHPGEKNEPYPVWSEQSSLTSQDENVRRVAFYRLFHCLHRDSSKIYTYLRILKCRLTSCET | soluble
